Measurements reported in patent US20180000755A1 (UNIVERSITY OF TOKYO, published 2018).

Target: T1, fragment consisting of the region of the 500th to 656th amino acids of FROUNT protein (Homo sapiens (Human), UniProt Q9BW27 500-656)
T1 construct: Fragment used in the NMR analysis; No tag is mentioned; also called FROUNT C-terminal fragment
T1 sequence: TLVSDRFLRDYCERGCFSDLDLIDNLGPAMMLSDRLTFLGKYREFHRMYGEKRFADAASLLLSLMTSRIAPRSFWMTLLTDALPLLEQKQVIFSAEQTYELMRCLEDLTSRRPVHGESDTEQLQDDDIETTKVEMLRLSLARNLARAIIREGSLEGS
Assay: NMR chemical shift perturbation

B1: CCR2 pro-C region fragment of 16 residues (SEQ ID NO:3) (peptide)
peptide: EKFRRYLSVFFRKHIT
notes: Peptide used in the NMR analysis; No biotinylation is mentioned
B1: binds.
